system: CcNsdD2-C (C-terminal DNA-binding domain of CcNsdD2) (Coprinopsis cinerea AmutBmut (pab1-1)), ORF:b1e54c23; test: EMSA; details: EMSA: 30 uL, 1x EMSA binding buffer (composition not given), 1.5 ug salmon sperm DNA, 50 ng probe, 4 ug CcNsdD2-C, 37 C 30 min; 5% PAGE in 1x TBE pH 8.3
Sequence (chain, as listed by the source): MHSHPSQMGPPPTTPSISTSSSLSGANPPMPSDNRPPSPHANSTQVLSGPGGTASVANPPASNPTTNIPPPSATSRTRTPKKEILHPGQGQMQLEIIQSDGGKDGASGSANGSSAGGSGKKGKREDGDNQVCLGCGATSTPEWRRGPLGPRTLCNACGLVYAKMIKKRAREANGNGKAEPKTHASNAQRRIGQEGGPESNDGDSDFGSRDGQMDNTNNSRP

Q: How did the binding turn out when “AGCACGTGGTCGAAAGGAAGTTGCTGTATACTCGATGACACTCAAGAGTGAGAGGGTTTCGGCCCGTGAGAGTTTCAAGCGGAGATCAAAAGCGATACAGTGATTAGATTAAAACAACGAGTAGATAAGATGGAGATCTTTCGACCACGTGCT (double strand) [cfs2 promoter probe]” was run?
A: Its binding is “binds”.

Q: With “AGCACGTGGTCGAAAGTCAGACGAAATCGCCGATTCGCCGAACTCAAGGCCAAATGCATTTTAAACTCCGATCTCGGTGGGTCGCTCACCGATAGATCTCAAAACGATTTCGTTTCTGTGACGAGCATGGCTTCGACGCATTATCCAACGGCTCCTTTCGACCACGTGCT (double strand) [nsdD1 promoter probe]” as the sequence, how does the binding read?
A: Its binding is “binds”.

Q: How did the binding turn out when “AGCACGTGGTCGAAAGCCGTGGTTGGGCAGATGTGGTGGGTGAAGATCGGCAAAAATAACAGGACGCGATCTATGAAAAGTCACGGATTCGCGAAGGGGGCAAATAGATCGCGTAGGAGCAAAAGGCGTGTGCATCGCGCGCTTTGGTTACTTTCGACCACGTGCT (double strand) [cfs1 promoter probe]” was run?
A: Its binding is “binds”.

Q: With “AGCACGTGGTCGAAAGCGTACTGTGGAGCAGGGAGAACGTTTGAAGATACCGAAGAAGCATCGGCTAGACCAAATCAAGCAGATCGGTGTACAGATATAGAATGTTTAGCTTGTTATTCGGTTCCAAGGAATACAGTCACAGCTCAGGAGCTTTCGACCACGTGCT (double strand) [hyd1 promoter probe]” as the sequence, how does the binding read?
A: The binding was “binds”.

Q: “AGCACGTGGTCGAAAGTTCGCAATTTCATTGCATCCCTGAGCCACCTGACCACCGGAGATCGCTGAATATTGCTTGGGCCAGATATGACCAGAGTTAGCTTGATAGATCGGCATCCCCAATGACGGAGATGAAGTCGGAAGAGCCGAATCCTTTCGACCACGTGCT (double strand) [cgl1 promoter probe]” was tested. Which binding did it give?
A: The binding was “binds”.
